Reference: the supplement of paper PMC10065799, “High-throughput profiling of sequence recognition by tyrosine kinases and SH2 domains using bacterial peptide display” (eLife, 2023)

Key:
EPHB1 = EPHB1 (UniProt P54762); experiment: phosphorylation enrichment, bacterial display (enrichment ratio); higher = better substrate or ligand; peptides without Tyr show the background
Hck = Hck (UniProt P08631); experiment: as above
Fer (mouse) = experiment: as above
MERTK = MERTK (UniProt Q12866); experiment: as above
Jak2 = Jak2 (UniProt O60674); experiment: as above
Jak2, sequence (O60674 whole entry, looked up): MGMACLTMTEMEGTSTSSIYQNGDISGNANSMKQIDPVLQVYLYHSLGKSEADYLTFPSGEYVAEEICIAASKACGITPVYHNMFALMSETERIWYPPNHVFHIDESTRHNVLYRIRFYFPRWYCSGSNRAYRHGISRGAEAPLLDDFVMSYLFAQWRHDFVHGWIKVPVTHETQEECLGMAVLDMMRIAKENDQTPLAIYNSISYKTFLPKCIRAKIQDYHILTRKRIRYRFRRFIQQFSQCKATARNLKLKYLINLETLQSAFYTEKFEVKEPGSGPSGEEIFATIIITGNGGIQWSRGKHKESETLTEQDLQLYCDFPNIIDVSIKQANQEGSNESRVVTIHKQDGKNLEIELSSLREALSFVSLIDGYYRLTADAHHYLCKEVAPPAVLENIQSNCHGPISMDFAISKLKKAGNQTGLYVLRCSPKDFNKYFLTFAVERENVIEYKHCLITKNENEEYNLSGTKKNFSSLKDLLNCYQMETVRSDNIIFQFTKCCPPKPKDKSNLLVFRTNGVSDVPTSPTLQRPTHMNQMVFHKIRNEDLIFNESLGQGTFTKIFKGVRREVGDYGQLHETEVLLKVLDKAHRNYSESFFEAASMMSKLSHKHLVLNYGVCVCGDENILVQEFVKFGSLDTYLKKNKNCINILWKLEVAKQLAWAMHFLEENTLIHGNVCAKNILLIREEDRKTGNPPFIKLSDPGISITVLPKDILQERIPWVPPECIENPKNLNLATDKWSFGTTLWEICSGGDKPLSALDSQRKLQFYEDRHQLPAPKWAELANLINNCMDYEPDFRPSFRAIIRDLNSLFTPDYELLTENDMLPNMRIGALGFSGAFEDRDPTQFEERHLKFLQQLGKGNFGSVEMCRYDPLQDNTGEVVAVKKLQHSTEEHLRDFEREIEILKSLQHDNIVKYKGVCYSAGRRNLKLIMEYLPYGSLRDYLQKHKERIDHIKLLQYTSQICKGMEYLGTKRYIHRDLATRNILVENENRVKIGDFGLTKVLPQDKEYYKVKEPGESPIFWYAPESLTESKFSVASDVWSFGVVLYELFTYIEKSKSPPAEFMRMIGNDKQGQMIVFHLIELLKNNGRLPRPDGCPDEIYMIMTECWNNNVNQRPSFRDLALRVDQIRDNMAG

c-Src = experiment: as above
FGFR3 = FGFR3 (UniProt P22607); experiment: as above
FGFR3, sequence (P22607 whole entry, looked up): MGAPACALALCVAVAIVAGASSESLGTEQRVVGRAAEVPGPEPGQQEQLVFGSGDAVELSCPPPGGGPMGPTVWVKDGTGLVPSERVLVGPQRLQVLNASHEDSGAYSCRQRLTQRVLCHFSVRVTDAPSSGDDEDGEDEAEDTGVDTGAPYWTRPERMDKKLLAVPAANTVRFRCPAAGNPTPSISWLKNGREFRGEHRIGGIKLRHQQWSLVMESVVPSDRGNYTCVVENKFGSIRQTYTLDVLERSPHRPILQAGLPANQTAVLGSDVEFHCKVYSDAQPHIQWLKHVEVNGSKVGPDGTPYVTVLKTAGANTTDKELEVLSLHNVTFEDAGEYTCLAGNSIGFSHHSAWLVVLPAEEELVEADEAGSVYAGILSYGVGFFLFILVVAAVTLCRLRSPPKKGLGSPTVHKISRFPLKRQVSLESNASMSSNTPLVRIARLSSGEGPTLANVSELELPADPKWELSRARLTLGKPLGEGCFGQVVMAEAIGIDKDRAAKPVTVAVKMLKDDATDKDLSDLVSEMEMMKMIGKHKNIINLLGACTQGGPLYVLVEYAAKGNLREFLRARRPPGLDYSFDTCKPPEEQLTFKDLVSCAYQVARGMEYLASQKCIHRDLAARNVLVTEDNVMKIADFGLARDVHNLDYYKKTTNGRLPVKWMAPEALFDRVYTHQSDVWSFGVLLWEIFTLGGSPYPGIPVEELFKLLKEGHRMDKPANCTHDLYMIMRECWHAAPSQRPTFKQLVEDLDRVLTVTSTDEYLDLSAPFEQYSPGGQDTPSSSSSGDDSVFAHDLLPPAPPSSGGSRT

AncSZ = experiment: as above
Fyn = Fyn (UniProt P06241); experiment: as above
Fyn, sequence (P06241 whole entry, looked up): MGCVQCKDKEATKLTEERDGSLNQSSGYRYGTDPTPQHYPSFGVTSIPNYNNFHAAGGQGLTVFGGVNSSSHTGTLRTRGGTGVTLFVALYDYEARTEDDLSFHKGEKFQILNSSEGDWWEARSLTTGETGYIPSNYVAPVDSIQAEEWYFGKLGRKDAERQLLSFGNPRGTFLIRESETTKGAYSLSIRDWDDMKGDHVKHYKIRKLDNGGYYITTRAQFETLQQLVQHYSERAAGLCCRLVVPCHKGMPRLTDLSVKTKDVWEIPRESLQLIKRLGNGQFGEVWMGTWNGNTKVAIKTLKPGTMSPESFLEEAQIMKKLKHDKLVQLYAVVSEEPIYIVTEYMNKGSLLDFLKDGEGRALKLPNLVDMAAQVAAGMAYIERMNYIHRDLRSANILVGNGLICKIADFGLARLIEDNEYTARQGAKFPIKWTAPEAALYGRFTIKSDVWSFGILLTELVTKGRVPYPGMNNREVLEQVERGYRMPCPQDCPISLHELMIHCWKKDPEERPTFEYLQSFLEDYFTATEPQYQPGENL

c-Abl (mouse) = experiment: as above
Fes = Fes (UniProt P07332); experiment: as above
Fes, sequence (P07332 whole entry, looked up): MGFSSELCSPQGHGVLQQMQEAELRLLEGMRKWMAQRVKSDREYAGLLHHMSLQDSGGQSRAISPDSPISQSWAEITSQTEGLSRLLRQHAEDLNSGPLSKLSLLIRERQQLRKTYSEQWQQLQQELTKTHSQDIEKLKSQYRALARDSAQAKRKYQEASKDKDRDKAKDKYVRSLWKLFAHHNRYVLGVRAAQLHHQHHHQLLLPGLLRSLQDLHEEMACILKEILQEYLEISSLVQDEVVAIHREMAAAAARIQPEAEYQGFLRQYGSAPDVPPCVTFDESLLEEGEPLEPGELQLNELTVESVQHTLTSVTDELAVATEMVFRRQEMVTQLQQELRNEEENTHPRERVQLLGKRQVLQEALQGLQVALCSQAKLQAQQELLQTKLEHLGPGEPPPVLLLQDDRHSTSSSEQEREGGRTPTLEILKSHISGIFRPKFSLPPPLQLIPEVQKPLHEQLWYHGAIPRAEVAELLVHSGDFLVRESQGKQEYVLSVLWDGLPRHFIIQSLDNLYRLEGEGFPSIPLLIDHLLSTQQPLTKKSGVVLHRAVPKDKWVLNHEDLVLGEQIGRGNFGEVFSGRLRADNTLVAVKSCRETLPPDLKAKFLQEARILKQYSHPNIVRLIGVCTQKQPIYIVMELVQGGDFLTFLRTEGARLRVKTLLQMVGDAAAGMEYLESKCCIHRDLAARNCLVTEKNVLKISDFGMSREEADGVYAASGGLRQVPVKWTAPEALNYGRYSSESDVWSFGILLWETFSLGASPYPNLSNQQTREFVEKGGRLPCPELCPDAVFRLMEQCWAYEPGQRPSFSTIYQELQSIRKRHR

EPHB2 = EPHB2 (UniProt P29323); experiment: as above
EPHB2, sequence (P29323 whole entry, looked up): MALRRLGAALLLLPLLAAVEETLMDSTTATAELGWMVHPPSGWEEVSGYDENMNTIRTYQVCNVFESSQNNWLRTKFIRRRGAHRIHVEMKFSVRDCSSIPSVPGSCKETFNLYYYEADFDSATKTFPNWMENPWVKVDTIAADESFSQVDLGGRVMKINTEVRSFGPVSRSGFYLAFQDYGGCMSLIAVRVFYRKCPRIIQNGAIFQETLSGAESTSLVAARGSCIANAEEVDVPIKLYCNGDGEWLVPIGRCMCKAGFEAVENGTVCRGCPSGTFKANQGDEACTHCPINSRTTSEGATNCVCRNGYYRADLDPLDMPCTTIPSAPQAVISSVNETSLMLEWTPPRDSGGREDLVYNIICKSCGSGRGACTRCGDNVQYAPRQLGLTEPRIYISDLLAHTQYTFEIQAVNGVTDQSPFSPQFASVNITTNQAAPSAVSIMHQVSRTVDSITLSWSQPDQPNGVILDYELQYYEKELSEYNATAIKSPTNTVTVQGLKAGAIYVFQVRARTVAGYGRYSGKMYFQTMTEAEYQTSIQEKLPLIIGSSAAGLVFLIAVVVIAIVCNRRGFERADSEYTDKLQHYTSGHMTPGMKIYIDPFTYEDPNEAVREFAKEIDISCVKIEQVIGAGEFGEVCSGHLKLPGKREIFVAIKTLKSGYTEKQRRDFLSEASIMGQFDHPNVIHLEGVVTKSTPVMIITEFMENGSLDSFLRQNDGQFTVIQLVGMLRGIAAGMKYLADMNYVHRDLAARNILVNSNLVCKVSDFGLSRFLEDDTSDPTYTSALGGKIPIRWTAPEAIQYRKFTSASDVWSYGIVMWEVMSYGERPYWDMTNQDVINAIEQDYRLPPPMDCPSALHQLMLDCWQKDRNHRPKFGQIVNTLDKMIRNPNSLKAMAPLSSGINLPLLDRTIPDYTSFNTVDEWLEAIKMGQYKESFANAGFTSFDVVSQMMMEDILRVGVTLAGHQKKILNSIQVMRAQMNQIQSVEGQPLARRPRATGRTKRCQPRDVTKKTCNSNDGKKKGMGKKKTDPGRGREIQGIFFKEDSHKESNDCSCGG

FGFR1 = FGFR1 (UniProt P11362); experiment: as above
c-Src SH2 = experiment: SH2 binding enrichment of the phosphorylated peptide, bacterial display (enrichment ratio); higher = better substrate or ligand; peptides without Tyr show the background
Grb2 SH2 = Grb2 SH2 (UniProt P62993); experiment: as above
SHP2-C SH2 = experiment: as above
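Wherever SH2 binding enrichment of the phosphorylated peptide, bacterial display is given: peptide library displayed on the E. coli surface as eCPX fusions, selected cells deep-sequenced, score is each peptide's frequency after selection divided by its frequency in the input.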
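Wherever phosphorylation enrichment, bacterial display is given: 11-residue human phosphosite peptides and single-mutation variants displayed on the E. coli surface, counted by deep sequencing, each peptide's frequency after selection divided by its frequency in the unselected input library; frequency after pTyr selection over input frequency; kinase dosed for 20-30% of maximal phosphorylation in three min.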

Hck, sequence (P08631 whole entry, looked up): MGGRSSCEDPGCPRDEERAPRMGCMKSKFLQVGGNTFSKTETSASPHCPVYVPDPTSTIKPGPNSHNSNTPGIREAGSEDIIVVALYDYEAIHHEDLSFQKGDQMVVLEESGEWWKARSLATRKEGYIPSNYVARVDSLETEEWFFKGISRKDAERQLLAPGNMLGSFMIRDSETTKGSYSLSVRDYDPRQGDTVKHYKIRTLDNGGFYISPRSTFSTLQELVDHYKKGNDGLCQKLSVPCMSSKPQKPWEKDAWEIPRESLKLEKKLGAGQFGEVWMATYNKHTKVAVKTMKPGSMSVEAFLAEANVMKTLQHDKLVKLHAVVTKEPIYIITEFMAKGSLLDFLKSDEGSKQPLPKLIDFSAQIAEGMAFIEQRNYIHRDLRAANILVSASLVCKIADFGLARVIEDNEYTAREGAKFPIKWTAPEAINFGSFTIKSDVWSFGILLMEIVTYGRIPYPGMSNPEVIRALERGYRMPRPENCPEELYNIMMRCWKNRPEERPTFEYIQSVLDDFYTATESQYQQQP

SH2 binding enrichment (c-Src SH2) | SH2 binding enrichment (Grb2 SH2) | SH2 binding enrichment (SHP2-C SH2) | Sequence | phosphorylation enrichment (EPHB1) | phosphorylation enrichment (Hck) | phosphorylation enrichment (Fer (mouse)) | phosphorylation enrichment (MERTK) | phosphorylation enrichment (Jak2) | phosphorylation enrichment (c-Src) | phosphorylation enrichment (FGFR3) | phosphorylation enrichment (AncSZ) | phosphorylation enrichment (Fyn) | phosphorylation enrichment (c-Abl (mouse)) | phosphorylation enrichment (Fes) | phosphorylation enrichment (EPHB2) | phosphorylation enrichment (FGFR1)
0.663 | 1.19 | 0.657 | QNTGFYFDLFG [PTPN11_Y62_D61Y_YF] | 1.6 | 0.742 | 1.12 | 2.75 | 2.66 | 0.681 | 2.42 | 1.89 | 0.668 | 1.36 | 2.16 | 1.25 | 3.04
0.951 | 0.923 | 0.816 | EHFSYYGMKAV [SLC15A2_Y61_R57H] | 0.887 | 3.42 | 0.607 | 2.35 | 9.46 | 3.38 | 6.68 | 1.01 | 1.71 | 0.634 | 0.765 | 0.818 | 8.11
0.47 | 0.677 | 0.852 | FSCLPYRRLAF [SLC52A2_Y305_G306R_YF] | 0.428 | 0.432 | 0.411 | 0.531 | 0.806 | 0.902 | 0.568 | 0.992 | 0.559 | 0.63 | 0.826 | 0.589 | 0.478
1.23 | 1.71 | 1.73 | CTIIHYNFMCN [TP53_Y234_T231I_YF] | 0.718 | 0.56 | 0.686 | 0.434 | 1.5 | 0.445 | 0.993 | 1.12 | 0.482 | 0.825 | 1.54 | 0.553 | 0.524
0.793 | 0.861 | 0.855 | LFLACYFIGGG [UBD_Y161_C162F] | 0.773 | 0.55 | 0.533 | 0.45 | 1.35 | 0.647 | 1.05 | 1.16 | 0.502 | 1.03 | 1.77 | 0.612 | 0.453
0.533 | 0.962 | 0.83 | TTKVSYRASQP [MKI67_Y1737] | 0.3 | 0.326 | 0.432 | 0.352 | 0.475 | 0.343 | 0.334 | 0.602 | 0.311 | 0.638 | 0.489 | 0.337 | 0.355
0.693 | 0.945 | 0.602 | RSFSPCDFQPC [TNS1_Y796_Y796C_YF] | 0.54 | 0.786 | 0.584 | 0.643 | 0.705 | 0.583 | 0.822 | 0.83 | 0.783 | 0.427 | 0.972 | 0.991 | 0.672
0.481 | 0.768 | 0.725 | FHKALYTVRTY [PDE6C_Y266_S270T] | 0.774 | 0.725 | 0.542 | 0.519 | 1.16 | 0.596 | 0.774 | 0.964 | 0.599 | 0.964 | 1.26 | 0.645 | 0.655
0.697 | 0.664 | 0.546 | GPQSLYNGLVA [UCP2_Y79_R76Q] | 0.477 | 3.69 | 0.552 | 0.723 | 0.744 | 1.83 | 0.515 | 0.622 | 0.85 | 0.628 | 0.614 | 0.551 | 0.493
2.01 | 1.1 | 3.8 | DFLSSYSAVNQ [OAT_Y85] | 0.658 | 0.531 | 1.17 | 0.558 | 0.997 | 0.61 | 0.698 | 1.04 | 0.427 | 0.703 | 0.947 | 0.493 | 0.433
0.44 | 0.767 | 0.753 | ASTDYYKRGDF [PDHA1_Y243] | 0.287 | 0.465 | 0.321 | 0.369 | 0.754 | 0.5 | 0.501 | 0.685 | 0.368 | 0.559 | 0.71 | 0.409 | 0.436
0.488 | 0.722 | 0.751 | KLNNEYLELNF [MME_Y497_YF] | 0.844 | 1.06 | 0.552 | 0.503 | 1.1 | 0.843 | 3.38 | 1.16 | 0.757 | 0.778 | 1.04 | 0.715 | 4.77
0.46 | 0.831 | 0.579 | VPEANYTSDEE [STK33_Y439_D436E] | 0.897 | 0.576 | 0.721 | 0.699 | 1.99 | 0.614 | 0.947 | 1.42 | 0.665 | 1.17 | 1.52 | 0.691 | 0.607
0.572 | 0.735 | 0.747 | ESDFTYSSSFE [SRPK2_Y427_YF] | 0.531 | 0.752 | 0.536 | 0.438 | 1.02 | 1.08 | 0.723 | 1.03 | 0.821 | 0.614 | 1.09 | 0.537 | 0.53

Second part, the sequence before the results:

Sequence | SH2 binding enrichment (c-Src SH2) | SH2 binding enrichment (Grb2 SH2) | SH2 binding enrichment (SHP2-C SH2) | phosphorylation enrichment (EPHB1) | phosphorylation enrichment (Hck) | phosphorylation enrichment (Fer (mouse)) | phosphorylation enrichment (MERTK) | phosphorylation enrichment (Jak2) | phosphorylation enrichment (c-Src) | phosphorylation enrichment (FGFR3) | phosphorylation enrichment (AncSZ) | phosphorylation enrichment (Fyn) | phosphorylation enrichment (c-Abl (mouse)) | phosphorylation enrichment (Fes) | phosphorylation enrichment (EPHB2) | phosphorylation enrichment (FGFR1)
FIAVGYVDDTQ [HLA-A_Y51] | 0.625 | 1.05 | 0.967 | 0.453 | 0.509 | 0.429 | 0.415 | 0.782 | 0.49 | 0.553 | 0.822 | 0.406 | 0.668 | 0.949 | 0.499 | 0.505
VEQIHYIGQNE [HMOX2_Y140_R137Q] | 0.465 | 0.834 | 0.582 | 0.445 | 0.461 | 0.424 | 0.408 | 0.547 | 0.452 | 0.612 | 0.665 | 0.462 | 0.423 | 0.663 | 0.396 | 0.483
KKFVPYFDLFM [IPO5_Y530_E525K_YF] | 0.878 | 1.58 | 0.831 | 0.722 | 0.571 | 0.53 | 0.645 | 1.14 | 0.526 | 0.898 | 1.29 | 0.479 | 0.773 | 1.35 | 0.707 | 0.79
FEAMEYLESKQ [BTK_Y511_C506Y_YF] | 0.484 | 0.641 | 0.635 | 0.534 | 0.567 | 0.543 | 0.474 | 1.17 | 0.427 | 0.993 | 1.24 | 0.499 | 0.966 | 1.36 | 0.682 | 0.527
FKIFRYTLNDN [FN1_Y1975_L1974R_YF] | 0.548 | 1.02 | 0.958 | 0.518 | 0.464 | 0.403 | 0.377 | 1.01 | 0.36 | 0.589 | 1.02 | 0.42 | 0.614 | 1.03 | 0.525 | 0.529
GHLYAYNWISI [BEST1_Y227_D228N] | 0.738 | 0.944 | 0.816 | 6.38 | 1.24 | 12 | 8.13 | 1.33 | 1.32 | 2.83 | 1.71 | 1.01 | 1.21 | 1.49 | 5.2 | 3.67
YDKEYYSVHNK [MET_Y1235] | 0.478 | 0.759 | 0.399 | 0.542 | 0.922 | 0.425 | 0.441 | 1.01 | 0.881 | 2.95 | 1.36 | 0.455 | 0.684 | 0.754 | 0.428 | 4.29
SDVSSYLEGQA [GCG_Y110] | 0.41 | 0.727 | 0.738 | 0.469 | 0.488 | 0.775 | 0.432 | 0.769 | 0.474 | 0.657 | 0.867 | 0.447 | 0.678 | 0.938 | 0.76 | 0.456
GEPLSYTRFSL [TFRC_Y20] | 0.558 | 0.901 | 0.519 | 0.438 | 0.52 | 0.554 | 0.567 | 2.21 | 0.83 | 0.545 | 0.833 | 0.443 | 1 | 0.935 | 0.455 | 0.452
SPPILYSFYLN [FCRL6_Y239_D244N] | 0.824 | 1.63 | 1.69 | 3.78 | 2.06 | 3.7 | 9.41 | 1.22 | 2.87 | 0.882 | 1.21 | 2.18 | 1.5 | 1.12 | 4.36 | 0.807
NSFKFYMSDDI [ATRX_Y204_C200S_YF] | 0.604 | 0.982 | 0.79 | 0.56 | 0.54 | 0.488 | 0.497 | 1.12 | 0.574 | 0.693 | 1.14 | 0.517 | 0.657 | 1.28 | 0.552 | 0.53
ERLWVYGMSSS [F8_Y1728_D1727V] | 0.639 | 0.872 | 0.688 | 0.669 | 0.574 | 0.539 | 0.395 | 1.18 | 0.556 | 0.729 | 1.17 | 0.565 | 0.691 | 1.61 | 0.612 | 0.529
KVMANYMYKAG [MAML2_Y513] | 0.849 | 1.16 | 1.06 | 0.505 | 0.461 | 0.388 | 0.33 | 0.49 | 0.296 | 0.512 | 0.617 | 0.404 | 0.54 | 0.836 | 0.533 | 0.529
TKLKDYFIFNK [CCDC42_Y149_A144T_YF] | 0.724 | 0.773 | 0.595 | 0.52 | 0.42 | 0.376 | 0.401 | 0.702 | 0.575 | 0.871 | 0.685 | 0.419 | 0.476 | 0.766 | 0.353 | 1.05
KYWREYILSLE [GPC3_Y299] | 1.37 | 1.48 | 1.71 | 0.541 | 0.461 | 0.366 | 0.39 | 0.974 | 0.856 | 0.752 | 1.03 | 0.427 | 0.677 | 1.05 | 0.569 | 0.499
